From patent publication CN111378038A (UNIV FUDAN, dated 2020)

Legend:
PD-1(ECD)-hFc融合蛋白 [1] = target: T1, PD-1(ECD)-hFc融合蛋白 (human, UniProt Q15116 25-170); assay: ELISA, PD-1(ECD)-hFc coated, serially diluted antibody, HRP-anti-Fab detection; reference: P2-G12 Fab
T1 construct: extracellular domain; It was biotin-labelled for the panning and coated on the plate in the ELISA; also called PD-1(ECD)-hFc蛋白; PD-1蛋白; not shown: hFc (human Fc)

[2] = target: T2, 人全长PD-1蛋白 (过表达于HEK293T细胞) (human, UniProt Q15116 25-288); assay: flow cytometry on HEK293T cells overexpressing human full-length PD-1, anti-human IgG1-FITC detection
T2 construct: whole, on cells; also called 过表达PD-1的HEK293T细胞
T2 sequence (Q15116 25-288): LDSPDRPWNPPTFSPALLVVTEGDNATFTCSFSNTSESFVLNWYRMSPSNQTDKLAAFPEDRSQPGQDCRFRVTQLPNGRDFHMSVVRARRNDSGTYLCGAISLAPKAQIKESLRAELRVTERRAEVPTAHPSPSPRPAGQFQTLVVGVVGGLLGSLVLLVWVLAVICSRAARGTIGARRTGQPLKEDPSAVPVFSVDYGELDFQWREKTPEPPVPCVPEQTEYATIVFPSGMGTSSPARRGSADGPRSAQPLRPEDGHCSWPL

PD-1(ECD)-hFc融合蛋白 [3] = target: T1, PD-1(ECD)-hFc融合蛋白; assay: ELISA, PD-1(ECD)-hFc coated, serially diluted antibody, HRP-anti-Fab detection

T1 sequence (Q15116 25-170): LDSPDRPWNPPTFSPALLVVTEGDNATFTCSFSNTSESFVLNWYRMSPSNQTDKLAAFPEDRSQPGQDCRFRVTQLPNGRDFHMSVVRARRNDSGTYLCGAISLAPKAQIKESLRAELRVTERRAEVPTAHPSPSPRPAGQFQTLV

B1: P2-G12 IgG1 (antibody, V domains shown)
VH: EVQLVQSGGGLVQPGGSLRLSCAASGFTFSSYSMNWVRQAPGKGLEWVSAISGSGGSTYYADSVKGRFTISRDNSKNTLYLQMNSLRAEDTAVYYCARDPYGSGSYYRGDAFDIWGQGTMVTVSS
VL: ELTQPPSVSVAPGKTARITCGGNNIGSKSVHWYQQKPGQAPVLAIYYDSDRPSGIPERFSGSNSGNTATLTISRVEVGDEADYYCQVWDSVSDVVFGGGTKLTVL
notes: also called 单克隆抗体P2-G12
B1 was tested, and the fold increase of binding ability against the Fab form (PD-1(ECD)-hFc融合蛋白 [1]) was 100 fold and the binding result [2] was “binds”.

B2: P2-G12 Fab (Fab, V domains shown)
VH: B1 VH
VL: B1 VL
notes: Fully human Fab from a phage display library, expressed in E. coli HB2151 and purified on Ni-NTA; P2-G12 is the only antibody described; also called PD-1抗体 (Fab形式)
B2: binds (PD-1(ECD)-hFc融合蛋白 [3]).
